# Measured values as given in patent publication US12305172.
# Where two headings read alike, the source gives them in different places.
# Experiments:
# thrombin = thrombin (UniProt P00734+P00734); conditions: CD titration at 295 nm, water, no added cations
# thrombin (Bos taurus) = thrombin (Bos taurus) (UniProt P00735+P00735); experiment: inhibition; conditions: clotting time
sequence,measurement,setting,value
GGTTGGTGTGGTTGG [TBA],Kd,thrombin; n = 1,0.38 µM
GGTTGGTGTGGTTGG [isoTBA],activity,"thrombin (Bos taurus); 2'-5'-linked isoDNA analogue of TBA [1-15 (all 2'-5'-linked isoDNA)], stated for comparison with TBA and iso-rTBA",73.4 s
GGUUGGUGUGGUUGG [iso-rTBA],Kd,"thrombin; all 2'-5'-linked RNA (3'-OH), SEQ ID NO:1, n = 4 thrombin per oligomer",3.4 µM
same,activity,"thrombin (Bos taurus); all 2'-5'-linked RNA (3'-OH), SEQ ID NO:1, 0.25 uM oligomer, 0.1 NIH U thrombin, 3.5 uM human fibrinogen, 37 °C",70.9 s
